Assay results from the RNAGym collection of RNA variant scans (doi:10.7554/elife.80360).

B1: CPEB3 Ribozyme (parent)
chain: GGGGGCCACAGCAGAAGCGUUCACGUCGCGGCCCCUGUCAGAUUCUGGUGAAUCUGCGAAUUCUGCUGU

Variants of: B1
Assay: self-cleavage, relative activity (ratio to wild type); higher = more cleavage; co-transcriptional

| Variant | self-cleavage |
| --- | --- |
| C9G U61G | 0.958 |
| C9U G50A | 1.02 |
| A10G C32U | 0.939 |
| A10G C32A | 0.847 |
| A10C C29U | 0.221 |
| C9G G48U | 1.01 |
| C9U G28U | 0.169 |
| A10G A59G | 0.925 |
| C9G A13U | 0.837 |
| A10U C45G | 0.949 |
| A10G U38G | 0.182 |
| A10G U38C | 0.906 |
| A10G U38A | 0.784 |
| A10G C22A | 0.141 |
| C9U G41U | 0.974 |
| C9U G41C | 0.949 |
| C9A U44G | 1.01 |
| A10G U26C | 0.351 |
| A10G U26G | 0.877 |
| A10G U26A | 0.933 |
| A10C U62A | 0.926 |
| C9A G56C | 0.921 |
| C9A G56U | 0.98 |
| C9A G41U | 0.955 |

| Variant | self-cleavage |
| --- | --- |
| C9U A16G | 0.956 |
| C9U A16U | 0.864 |
| C9U G58A | 1.03 |
| C9U G58U | 1.02 |
| C9G U38C | 0.997 |
| C9U A13G | 1.04 |
| C9U A60U | 0.538 |
| C9G U67A | 0.959 |
| A10U C12A | 0.707 |
| A10U C12U | 0.913 |
| C9U C29U | 0.874 |
| A10U A52U | 1.02 |
| A10C G31C | 0.233 |
| C9A U26G | 0.983 |
| A10C G48U | 1.02 |
| A10C G48C | 0.992 |
| A10G G17C | 0.106 |
| A10C G37A | 0.242 |
| C9G U20C | 0.254 |
| C9U C33G | 0.974 |
| C9G G50U | 1.02 |
| C9G G50A | 1.01 |
| C9U U36C | 1.02 |
| C9U U36A | 0.312 |

| Variant | self-cleavage |
| --- | --- |
| A10C G41A | 0.824 |
| A10C G41U | 0.826 |
| A10C G41C | 0.798 |
| C9G A60G | 0.952 |
| C9G U46G | 1 |
| C9G U46C | 0.937 |
| C9A G14A | 0.725 |
| C9A G14U | 0.767 |
| C9G C33A | 1.03 |
| A10C U67A | 1.02 |
| A10C C24G | 0.478 |
| C9G U44G | 0.96 |
| C9A G50A | 1.02 |
| C9A G50U | 0.999 |
| C9A G50C | 1.03 |
| C9A C63G | 0.806 |
| C9A C63A | 0.953 |
| C9G A51C | 0.674 |
| C9U C32U | 1.02 |
| A10C C27G | 0.0915 |
| A10U A59G | 0.968 |
| A10G A42C | 0.668 |
| A10G G41A | 0.37 |
| A10G G41C | 0.326 |

| Variant | self-cleavage |
| --- | --- |
| C9A C45G | 1.03 |
| A10G U44G | 0.71 |
| A10C G25U | 0.0666 |
| C9G C57U | 0.356 |
| A10C G14C | 0.252 |
| A10U C34U | 0.985 |
| A10U A42C | 0.937 |
| C9U G47C | 1.06 |
| C9U G47U | 1.02 |
| C9G U36A | 0.256 |
| A10G C12G | 0.742 |
| A10G C12A | 0.356 |
| A10G C12U | 0.948 |
| A10G U67C | 0.967 |
| A10G C18A | 0.0954 |
| A10G C18G | 0.0572 |
| A10G C18U | 0.264 |
| A10C C22A | 0.161 |
| C9A G37U | 0.401 |
| C9G U69C | 1.07 |
| A10U C35G | 0.64 |
| A10U C35A | 0.245 |
| A10G G50A | 0.949 |
| A10C A59G | 1 |

| Variant | self-cleavage |
| --- | --- |
| A10C A59C | 0.832 |
| C9G A23C | 0.993 |
| C9A G28A | 0.265 |
| C9U U69C | 1.07 |
| C9A U53G | 1 |
| A10U A13G | 0.56 |
| A10U A13U | 0.701 |
| A10G C34U | 0.982 |
| A10G C66A | 0.385 |
| C9G G28A | 0.264 |
| C9G G28C | 0.149 |
| C9U C12G | 0.976 |
| C9U C12A | 0.785 |
| C9U C12U | 1.01 |
| A10C U46C | 0.98 |
| A10U C18A | 0.222 |
| A10U C18U | 0.883 |
| A10G U62C | 0.376 |
| C9U U43G | 0.967 |
| C9G C54G | 0.926 |
| C9G G41A | 0.872 |
| C9A U21A | 1.01 |
| A10G C45G | 0.839 |
| C9A G58C | 1.04 |

| Variant | self-cleavage |
| --- | --- |
| C9A G58U | 1.04 |
| A10C A40G | 0.976 |
| C9A U46G | 1.04 |
| C9U A52G | 0.673 |
| C9A C39U | 0.973 |
| C9U A15G | 1.05 |
| C9U A15U | 0.931 |
| A10G U53C | 0.333 |
| A10G U53A | 0.651 |
| A10U C22A | 0.208 |
| C9G G56C | 0.924 |
| C9G G56A | 1.01 |
| C9G G56U | 0.97 |
| C9U C22G | 0.21 |
| C9U C22A | 0.226 |
| C9G G37C | 0.289 |
| C9G G37A | 0.371 |
| A10C C32G | 0.418 |
| A10C U43C | 0.965 |
| A10C U43A | 0.892 |
| A10C U43G | 0.808 |
| C9U C54U | 0.988 |
| A10G G14C | 0.0631 |
| C9A G31A | 1 |

| Variant | self-cleavage |
| --- | --- |
| C9A G31C | 0.291 |
| C9A G31U | 0.961 |
| C9U G14C | 0.747 |
| C9U G14U | 0.898 |
| A10G A40U | 0.301 |
| C9G C27G | 0.246 |
| C9G C27A | 0.754 |
| C9G G31A | 0.936 |
| C9G A59C | 0.896 |
| A10G G37U | 0.11 |
| A10G G37A | 0.219 |
| A10C C63G | 0.629 |
| C9U A59U | 0.888 |
| C9U A59C | 0.877 |
| A10G A60C | 0.176 |
| A10G A60U | 0.221 |
| C9G G14A | 0.783 |
| C9A U38G | 0.152 |
| C9A U38A | 0.989 |
| A10C G19C | 0.097 |
| A10C G19U | 0.446 |
| A10C U49G | 1.04 |
| A10C C39U | 0.877 |
